Measurements from patent US20160311887A1 (CAMBRIDGE ENTERPRISE, published 2016).
Changes are numbered by the printed parent chain. Names and notes keep the numbering of the source.

Key:
[1] = target: T1, activated Protein C (APC) (human, UniProt P04070 43-197; P04070 212-461); assay: pseudo-first-order inhibition kinetics, residual chromogenic activity, no heparin
T1 construct: also called human plasma APC
Description: (§1) Rate constants of thrombin and APC inhibition were measured under pseudo-first-order conditions using an excess of serpin over protease (Table 1). Serpin and protease were incubated together for varying lengths of time and the residual activity was determined by adding an excess of chromogenic substrate for the protease (S2238 for thrombin and […] for APC). Residual protease activity was then measured by following the absorbance at 405 nm. Plots of residual protease activity over time gave the observed rate constant kobs. The second-order rate constant, ₖ₂, is the slope of the plot of kobs versus serpin concentration (fitted using a linear regression model). Standard errors of the slope are shown.

[2] = target: T2, thrombin (UniProt P00734 328-622); assay: as above
Description: as §1

[3] = target: T3, fXa (UniProt P00742 41-179; P00742 235-488); assay: pseudo-first-order inhibition kinetics, residual chromogenic activity (S2222)
T3 construct: also called factor Xa
T3 sequence (P00742 41-179 limits assumed, form in doubt, chain 1 of 2): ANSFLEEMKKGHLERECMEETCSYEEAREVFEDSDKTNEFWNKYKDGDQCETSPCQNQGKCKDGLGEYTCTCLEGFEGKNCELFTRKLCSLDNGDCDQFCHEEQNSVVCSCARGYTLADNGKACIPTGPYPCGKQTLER
T3 sequence (P00742 235-488 limits assumed, form in doubt, chain 2 of 2): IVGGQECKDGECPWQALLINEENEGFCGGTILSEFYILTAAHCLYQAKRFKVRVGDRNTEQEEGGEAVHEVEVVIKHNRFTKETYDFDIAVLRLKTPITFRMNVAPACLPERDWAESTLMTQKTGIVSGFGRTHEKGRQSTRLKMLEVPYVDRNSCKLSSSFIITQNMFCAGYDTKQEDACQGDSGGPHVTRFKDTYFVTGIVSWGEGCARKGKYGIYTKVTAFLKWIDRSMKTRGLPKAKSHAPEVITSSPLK
Description: (§2) The inhibition of APC was reduced but still considerable, especially for the variants of α₁AT and the PCI variants in the presence of heparin. However, the specificity of PCI and α₁AT Pitts is not limited to thrombin and APC. […] In order not to inhibit coagulation, our variants also need to be specific for APC over fXa. We therefore also determined the rate constants of inhibition of PCI and α₁AT and their variants for fXa (Table 3). Rate constants were measured under pseudo-first-order conditions using an excess of serpin over protease. Serpin and protease were incubated together for varying lengths of time and the residual activity determined by adding an excess of chromogenic substrate (S2222) for the protease. Plots of residual protease activity over time gave the observed rate constant kobs. The second-order rate constant, k₂, is the slope of the plot of kobs versus serpin concentration (fitted using a linear regression model). Standard errors of the slope are shown (Table 3).

[4] = target: T1, activated Protein C (APC); assay: ratio of rate constants, APC over thrombin
Description: as §1

[5] = target: T1, activated Protein C (APC); assay: pseudo-first-order inhibition kinetics (repeated from Table 1)
Description: as §1

[6] = target: T2, thrombin; assay: as above
Description: as §1

[7] = target: T1, activated Protein C (APC); assay: ratio of rate constants with heparin, APC over thrombin
Description: (§3) PCI, unlike α₁AT, binds heparin and this binding considerably increases its inhibition of thrombin and APC (Pratt & Church, 1992). We therefore tested the inhibition of thrombin and APC by the P1′K and P2KP1′K PCI mutants in the presence of heparin to see if the swap in specificity seen in Table 1 would persist. Rate constants were measured under pseudo-first-order conditions using an excess of PCI over protease. PCI was preincubated with an equimolar concentration of unfractionated heparin for 30 min prior to the experiment. PCI:heparin and protease were incubated together for varying lengths of time and the residual activity after certain timepoints determined by adding an excess of chromogenic substrate for the protease mixed with polybrene to bind the heparin. Plots of residual protease activity over time gave the observed rate constant kobs. The second-order rate constant, k₂, is the slope of the plot of kobs versus serpin concentration (fitted using a linear regression model). Standard errors of the slope are shown. […] This might be due to the substrate pathway or complex dissociation. As for the inhibition in the absence of heparin, the P1′K and P2KP1′K mutants of PCI, unlike the WT protein were specific for APC over thrombin (Table 2).

[8] = target: T1, activated Protein C (APC); assay: ratio of rate constants, APC over fXIa
Description: as §1
Second-order rate constants of inhibition for inhibition of fXIa by PCI and the P2KP1′K variant were measured under pseudo-first-order conditions using an excess of serpin over protease. Serpin and protease were incubated together for varying lengths of time and the residual activity determined by adding an excess of chromogenic substrate for the protease (S2366). Plots of residual protease activity over time gave the observed rate constant kobs. The second-order rate constant, k₂, is the slope of the plot of kobs versus serpin concentration (fitted using a linear regression model).

[9] = target: T1, activated Protein C (APC); assay: ratio of rate constants, APC over fXa
Description: as §2

[10] = target: T1, activated Protein C (APC); assay: pseudo-first-order inhibition kinetics, residual chromogenic activity, with equimolar unfractionated heparin
Description: as §3

[11] = target: T2, thrombin; assay: as above
Description: as §3

[12] = target: T1, activated Protein C (APC); assay: ratio of rate constants, APC over thrombin (repeated from Table 1)
[13] = target: T1, activated Protein C (APC); assay: pseudo-first-order inhibition kinetics, residual chromogenic activity
[14] = target: T2, thrombin; assay: as above
[15] = target: T3, fXa; assay: as above
[16] = target: T3, fXa; assay: single-concentration estimate (FIG. 15)
Description: 1 μM serpin was incubated with 12.5 nM protease for different amounts of time. At the indicated timepoints, the reaction was stopped by addition of an excess of chromogenic substrate (S2238 for thrombin, S2222 for fXa). The residual enzyme activity was divided by the initial enzyme activity and the natural log of this value plotted against time. The slope of these plots is the observed rate constant, kobs. To obtain an estimate of the second-order rate constant k₂, kobs was divided by the serpin concentration. […] The mutants shown all have the Pitts (M358R, P1R) mutation.
Four additional mutants were identified from this additional screen. These all had the P1R mutation and in addition had either P2RP1′A, P2RP1′Q, P2WP1′I or P2WP1′H. To verify the specificity of these mutants, an initial experiment was performed, using only one concentration of serpin and testing its inhibition of thrombin and fXa. APC inhibition was not considered at this stage, because mutants were selected based on their low inhibition of thrombin and fXa. Serpin and protease were incubated for different times and at the indicated timepoints, the reaction was stopped by addition of an excess of chromogenic substrate. Residual protease activity was divided by the initial protease activity and the natural log of this value plotted against time (FIG. 15). The slope of this line divided by the serpin concentration gives an estimate of the second-order rate constant of inhibition.

T1 sequence (P04070 43-197, chain 1 of 2): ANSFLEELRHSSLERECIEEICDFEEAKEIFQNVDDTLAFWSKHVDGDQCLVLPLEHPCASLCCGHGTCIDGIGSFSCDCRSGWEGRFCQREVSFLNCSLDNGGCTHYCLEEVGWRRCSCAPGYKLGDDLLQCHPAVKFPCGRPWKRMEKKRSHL
T1 sequence (P04070 212-461, chain 2 of 2): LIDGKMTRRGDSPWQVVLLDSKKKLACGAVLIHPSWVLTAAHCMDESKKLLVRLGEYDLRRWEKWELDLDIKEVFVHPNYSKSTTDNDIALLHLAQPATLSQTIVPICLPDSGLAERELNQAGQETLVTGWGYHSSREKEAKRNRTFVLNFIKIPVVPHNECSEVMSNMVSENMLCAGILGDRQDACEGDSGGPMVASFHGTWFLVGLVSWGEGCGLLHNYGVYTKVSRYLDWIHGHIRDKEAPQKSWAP

B1: A22 WT PCI (other)
chain: APSSRRDFTFDLYRALASAAPSQNIFFSPVSISMSLAMLSLGAGSSTKMQILEGLGLNLQKSSEKELHRGFQQLLQELNQPRDGFQLSLGNALFTDLVVDLQDTFVSAMKTLYLADTFPTNFRDSAGAMKQINDYVAKQTKGKIVDLLKNLDSNAVVIMVNYIFFKAKWETSFNHKGTQEQDFYVTSETVVRVPMMSREDQYHYLLDRNLSCRVVGVPYQGNATALFILPSEGKMQQVENGLSEKTLRKWLKMFKKRQLELYLPKFSIEGSYQLEKVLPSLGISNVFTSHADLSGISNHSNIQVSEMVHKAVVEVDESGTRAAAATGTIFTFRSARLNSQRLVFNRPFLMFIVDNNILFLGKVNRP
notes: Serpin; E. coli, SUMO tag removed; also called A22 wild-type (WT) PCI
B1 was tested, and the “second-order rate constant of inhibition” value [1] was 680 M⁻¹ s⁻¹, the “second-order rate constant of inhibition” value [2] was 28200 M⁻¹ s⁻¹ and the “second-order rate constant of inhibition” value [3] was 10300 M⁻¹ s⁻¹. For the same binder, the “fold inhibition APC/thrombin” value [4] was 0.02 fold, the “second-order rate constant of inhibition” value [5] was 680 M⁻¹ s⁻¹ and the “second-order rate constant of inhibition” value [6] was 28200 M⁻¹ s⁻¹. For the same binder, the “fold inhibition APC/thrombin” value [7] was 0.4 fold, the “inhibition of APC/fXIa” value [8] was 0.08 fold and the “fold inhibition APC/fXa” value [9] was 0.07 fold. For the same binder, the “second-order rate constant of inhibition” value [10] was 564000 M⁻¹ s⁻¹, the “second-order rate constant of inhibition” value [11] was 1.31e+06 M⁻¹ s⁻¹ and the “inhibition of APC/thrombin” value [12] was 0.02 fold.

B2: A22 P1′K PCI (other)
chain: B1 chain with S334K
notes: As A22 WT PCI
In the case of B2, the “second-order rate constant of inhibition” value [1] is reported as 880 M⁻¹ s⁻¹, the “second-order rate constant of inhibition” value [2] is reported as 22 M⁻¹ s⁻¹ and the “second-order rate constant of inhibition” value [3] is reported as 520 M⁻¹ s⁻¹. The “fold inhibition APC/thrombin” value [4] was 40 fold, the “fold inhibition APC/thrombin” value [7] was 18900 fold and the “fold inhibition APC/fXa” value [9] was 1.7 fold. For the same binder, the “second-order rate constant of inhibition” value [10] was 322000 M⁻¹ s⁻¹ and the “second-order rate constant of inhibition” value [11] was 17 M⁻¹ s⁻¹.

B3: A22 P2KP1′K PCI (other)
chain: B1 chain with F332K, S334K
notes: As A22 WT PCI
For B3, the “second-order rate constant of inhibition” value [1] was 280 M⁻¹ s⁻¹, the “fold inhibition APC/thrombin” value [4] was 9.3 fold and the “second-order rate constant of inhibition” value [5] was 280 M⁻¹ s⁻¹. The “fold inhibition APC/thrombin” value [7] was 1330 fold, the “inhibition of APC/fXIa” value [8] was 12.2 fold and the “second-order rate constant of inhibition” value [10] was 146000 M⁻¹ s⁻¹. For the same binder, the “inhibition of APC/thrombin” value [12] was 9.3 fold.

B4: FL α1AT Pitts C232S P2KP1′Q (other)
chain: SDPQGDAAQKTDTSHHDQDHPTFNKITPNLAEFAFSLYRQLAHQSNSTNIFFSPVSIATAFAMLSLGTKADTHDEILEGLNFNLTEIPEAQIHEGFQELLRTLNQPDSQLQLTTGNGLFLSEGLKLVDKFLEDVKKLYHSEAFTVNFGDTEEAKKQINDYVEKGTQGKIVDLVKELDRDTVFALVNYIFFKGKWERPFEVKDTEEEDFHVDQVTTVKVPMMKRLGMFNIQHSKKLSSWVLLMKYLGNATAIFFLPDEGKLQHLENELTHDIITKFLENEDRRSASLHLPKLSITGTYDLKSVLGQLGITKVFSNGADLSGVTEEAPLKLSKAVHKAVLTIDEKGTEAAGAMFLEAIKRQIPPEVKFNKPFVFLMIEQNTKSPLFMGKVVNPTQK
For B4, the “second-order rate constant of inhibition” value [13] was 9000 M⁻¹ s⁻¹, the “second-order rate constant of inhibition” value [14] was 2.9 M⁻¹ s⁻¹ and the “second-order rate constant of inhibition” value [15] was 170 M⁻¹ s⁻¹.

B5: α1AT Pitts (P1R) mutant P2WP1′I (other)
chain: B4 chain with K357W, Q359I
With B5 the “fold reduction of the second-order rate constant compared to FL α1AT Pitts C232S” value (“fold reduction” for short) [16] was ~10 fold.

B6: α1AT Pitts (P1R) mutant P2RP1′A (other)
chain: B4 chain with K357R, Q359A
notes: also called 3.E5
With B6 the “fold reduction” value [16] was ~10 fold.

B7: α1AT Pitts (P1R) mutant P2WP1′H (other)
chain: B4 chain with K357W, Q359H
In the case of B7, the “fold reduction” value [16] is reported as ~10 fold.

B8: FL α1AT Pitts C232S P2RP1′Q (other)
chain: B4 chain with K357R
B8 was tested, and the “second-order rate constant of inhibition” value [13] was 8300 M⁻¹ s⁻¹, the “second-order rate constant of inhibition” value [14] was 5.4 M⁻¹ s⁻¹ and the “second-order rate constant of inhibition” value [15] was 130 M⁻¹ s⁻¹.
